Experiments:
[1] = target: FLAG-tagged, point mutated Bcl10 (R228/G) (human) (UniProt O95999); assay: cell-based or functional assay
[2] = target: human Bcl10 (hBcl10), endogenous in the cells used (human) (UniProt O95999); assay: cell-based or functional assay

Row | Substance | relative NF-κB activity (dual luciferase assay), percent of the maximum levels (wt Bcl10) [1] [%] | relative NF-κB activity (dual luciferase assay), percent of the maximum level achieved with wt Malt1 [2] [%]
1 | human Malt1 (hMalt1), endogenous in the cells used (from UniProt Q9UDY8 1-824) (enzyme) | 75 | –
2 | Malt1 with deletion of the caspase-like domain (Δcasp) or mutation of the active site residues Cys 464 or His 415 | – | 50 to 65

Reference: patent EP2015073A1
